Assay results reported in IntAct's records for PubMed 33762578.

B1: E3 ubiquitin-protein ligase NEDD4 (Homo sapiens), P46934-3 (parent)
chain: MAQSLRLHFAARRSNTYPLSETSGDDLDSHVHMCFKRPTRISTSNVVQMKLTPRQTALAPLIKENVQSQERSSVPSSENVNKKSSCLQISLQPTRYSGYLQSSNVLADSDDASFTCILKDGIYSSAVVDNELNAVNDGHLVSSPAICSGSLSNFSTSDNGSYSSNGSDFGSCASITSGGSYTNSVISDSSSYTFPPSDDTFLGGNLPSDSTSNRSVPNRNTTPCEIFSRSTSTDPFVQDDLEHGLEIMKLPVSRNTKIPLKRYSSLVIFPRSPSTTRPTSPTSLCTLLSKGSYQTSHQFIISPSEIAHNEDGTSAKGFLSTAVNGLRLSKTICTPGEVRDIRPLHRKGSLQKKIVLSNNTPRQTVCEKSSEGYSCVSVHFTQRKAATLDCETTNGDCKPEMSEIKLNSDSEYIKLMHRTSACLPSSQNVDCQININGELERPHSQMNKNHGILRRSISLGGAYPNISCLSSLKHNCSKGGPSQLLIKFASGNEGKVDNLSRDSNRDCTNELSNSCKPGWVVLDQPDAACHLQQQQEPSPLPPGWEERQDILGRTYYVNHESRRTQWKRPTPQDNLTDAENGNIQLQAQRAFTTRRQISEETESVDNRESSENWEIIREDEATMYSNQAFPSPPPSSNLDVPTHLAEELNARLTIFGNSAVSQPASSSNHSSRRGSLQAYTFEEQPTLPVLLPTSSGLPPGWEEKQDERGRSYYVDHNSRTTTWTKPTVQATVETSQLTSSQSSAGPQSQASTSDSGQQVTQPSEIEQGFLPKGWEVRHAPNGRPFFIDHNTKTTTWEDPRLKIPAHLRGKTSLDTSNDLGPLPPGWEERTHTDGRIFYINHNIKRTQWEDPRLENVAITGPAVPYSRDYKRKYEFFRRKLKKQNDIPNKFEMKLRRATVLEDSYRRIMGVKRADFLKARLWIEFDGEKGLDYGGVAREWFFLISKEMFNPYYGLFEYSATDNYTLQINPNSGLCNEDHLSYFKFIGRVAGMAVYHGKLLDGFFIRPFYKMMLHKPITLHDMESVDSEYYNSLRWILENDPTELDLRFIIDEELFGQTHQHELKNGGSEIVVTNKNKKEYIYLVIQWRFVNRIQKQMAAFKEGFFELIPQDLIKIFDENELELLMCGLGDVDVNDWREHTKYKNGYSANHQVIQWFWKAVLMMDSEKRIRLLQFVTGTSRVPMNGFAELYGSNGPQSFTVEQWGTPEKLPRAHTCFNRLDLPPYESFEELWDKLQMAIENTQGFDGVD

Variants of: B1
Conditions: with spike_sars2 S

Variant | effect of a mutation on the interaction
R877Q | increasing interaction strength
I843R | increasing interaction strength
